Experimental data taken from patent US5726050.

Target: double-stranded RNA adenosine deaminase (dsrad, 140 kDa Z-DNA binding protein) (Gallus gallus) (UniProt A0A8V1AB28)
Assay: competition
Settings: bandshift competition

Chain of UniProt A0A8V1AB28 (A0A8V1AB28 entry or part of it): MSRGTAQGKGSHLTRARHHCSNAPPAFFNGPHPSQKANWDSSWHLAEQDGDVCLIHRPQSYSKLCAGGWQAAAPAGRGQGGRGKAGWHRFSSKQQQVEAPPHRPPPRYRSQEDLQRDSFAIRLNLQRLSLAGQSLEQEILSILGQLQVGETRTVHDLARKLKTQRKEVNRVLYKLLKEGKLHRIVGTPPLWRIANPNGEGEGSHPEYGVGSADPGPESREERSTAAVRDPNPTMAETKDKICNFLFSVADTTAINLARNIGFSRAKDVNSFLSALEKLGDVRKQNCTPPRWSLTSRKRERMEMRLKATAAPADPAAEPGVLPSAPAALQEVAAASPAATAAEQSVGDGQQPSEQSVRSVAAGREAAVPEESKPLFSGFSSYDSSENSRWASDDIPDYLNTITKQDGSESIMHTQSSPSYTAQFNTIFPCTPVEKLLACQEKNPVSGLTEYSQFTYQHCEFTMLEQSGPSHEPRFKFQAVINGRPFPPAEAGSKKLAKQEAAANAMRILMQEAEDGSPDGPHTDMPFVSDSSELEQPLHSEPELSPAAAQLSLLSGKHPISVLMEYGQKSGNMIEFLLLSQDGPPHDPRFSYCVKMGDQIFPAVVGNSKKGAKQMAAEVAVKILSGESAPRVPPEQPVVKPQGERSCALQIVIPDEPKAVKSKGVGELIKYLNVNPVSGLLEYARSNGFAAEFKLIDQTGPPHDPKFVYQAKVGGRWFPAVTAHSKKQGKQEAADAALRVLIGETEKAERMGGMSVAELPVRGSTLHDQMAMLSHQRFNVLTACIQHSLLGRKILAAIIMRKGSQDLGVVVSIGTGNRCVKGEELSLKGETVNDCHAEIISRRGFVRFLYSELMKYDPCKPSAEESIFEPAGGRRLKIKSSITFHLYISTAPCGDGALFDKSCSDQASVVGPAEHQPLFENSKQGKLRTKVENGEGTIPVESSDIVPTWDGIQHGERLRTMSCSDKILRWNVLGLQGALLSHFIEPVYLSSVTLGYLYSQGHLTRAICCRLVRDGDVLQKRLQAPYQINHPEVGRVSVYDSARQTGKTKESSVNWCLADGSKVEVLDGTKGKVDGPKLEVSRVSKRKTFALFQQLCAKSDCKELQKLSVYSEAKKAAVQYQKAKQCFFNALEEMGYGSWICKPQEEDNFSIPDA

In the case of pDHg16 relaxed by topoisomerase I, the binding signal (fold weaker than supercoiled) (relaxed with calf thymus topoisomerase I) was 100.
In the case of “pDHg16 supercoiled plasmid with d(CG)13 insert”, the binding signal (reference, bacterial superhelical density) was 1 fold.
